Laboratory results published in US20240148901A1.

Target: Recombinant gp120JR-FL (MyBioSource) (HIV)
Experiment: modified gp120 ELISA: gp120JR-FL coated plate, NanoLuc luminescence read-out

Q: Which sensitivity of the gp120 ELISA does the source give for “secreted PGT121-NanoLuc, purified (antibody)” here?
A: Its sensitivity of the gp120 ELISA is 500 pg/mL.
